The values that follow come from US20150150157A1, “PREPHENATE DEHYDROGENASES AND AROGENATE DEHYDROGENASES THAT ARE INSENSITIVE TO EFFECTOR FEEDBACK INHIBITION AND METHODS OF USING THE SAME” (Wisconsin Alumni Research Foundation, priority 2013, published 2015).

Common to all, as to type: biochemical
The test system of test [1] is CM activity in the plastid fraction. As to the kind of experiment: CM activity in plastidic fraction of soybean leaf with and without effector. The settings on record: 1 mM effector. As for the experimental part: (§1) CM activity from crude plant extracts and from cytosolic and plastidic fractions (FIG. 4I) was determined in the presence and absence of 1 mM L-Tyr or L-Trp (FIG. 4I) by detecting phenylpyruvate formation using the same HPLC method for HPLA detection (see above). Assays were set up as described above but were incubated for 60 min at 37° C. before addition of 1 N HCl. Phenylpyruvate was detected by UV absorbance at 270 nm and quantified by comparison to the authentic phenylpyruvate standard (Sigma-Aldrich).
(§2) Ten grams of 4-week-old soybean leaves were harvested at the end of the night to deplete starch. The fresh tissues were homogenized using a Polytron (Brinkmann, Westhury, N.Y.) in 10 ml of the plastid isolation buffer (0.5 M sorbitol, 20 mM HEPES (pH 7.4), 10 mM KCl, 1 mM MgCl2, 1 mM EDTA, 5 mM DTT and 1% BSA) (Kong and Rawsthorne. Plant J, 6: 795-805 (1994)). The homogenate was filtered through two layers of micracloth. The residual homogenate left on the micracloth was homogenized again in 10 ml of the isolation buffer and passed through two layers of micracloth, which was repeated once more to yield ˜30 ml of homogenate. The combined homogenate was centrifuged at 2,500 g for 5 min. The pellet was washed twice with the isolation buffer, resuspended in 4 ml of lysis buffer (25 mM HEPES (pH 7.5), 50 mM KCl) and left on ice for 20 min to rapture the plastids. […]

Test [2] deals with CM activity in the cytosol. As to the kind of experiment: CM activity in cytosolic fraction of soybean leaf with and without effector. The note with it: 1 mM effector. On the procedure: as §1, §2
Test [3] can be described thus: Inhibition analysis: L-Tyr sensitivity of PDH activity, crude E. coli extract expressing Glyma11g35760. The settings on record: for PDH activity: crude E. coli extract. On the procedure:
For recombinant protein expression, the cloned pFT28a vectors were introduced into Rosetta-2 E. coli competent cells (Novagen) and cultured overnight at 37° C., 200 r.p.m. in 10 ml LB medium containing kanamycin (100 μg/ml) and chloramphenicol (100 μg/ml). Two milliliters of the overnight culture were transferred to 50 ml LB medium with the same antibiotics and further incubated at 37° C. and 200 r.p.m. until the OD600 reached 0.3. The temperature was then changed to 18° C. and, after 1 h, isopropyl β-D-I-thiogalactopyranoside (IPTG, […] final concentration) was added to induce recombinant protein expression. After overnight incubation at 18° C. under constant shaking at 200 r.p.m, cultures were harvested by centrifugation at 2,000 g for 30 min at 4° C. and the pellet was resuspended in an appropriate volume of lysis buffer (25 mM HEPES, pH 7, 50 mM KCl, 10% ethylene glycol, 1 mM phenylmethylsulfortyl fluoride (PMSF) and 1 mM DTT) calculated on the basis of the formula (OD600×ml volume of culture)/30. The resuspended pellet was sonicated three times for 15 s. The cell lysate was centrifuged at 16,000 g for 10 min at 4° C. and the supernatant was applied to a column containing 500 μl PerfectPro Ni-NTA resin (5 PRIME, Hamburg, Germany). The column was washed with ten times the bed volume of wash buffer 1 (50 mM sodium phosphate buffer, pH 8.0, 300 mM NaCl, 20 mM imidazole) followed by ten times the bed volume of wash buffer II (50 mM sodium phosphate buffer, pH 8.0, 300 mM NaCl, 40 mM imidazole) and then wash buffer III (50 mM sodium phosphate buffer, pH 8.0, 300 mM NaCl, 60 mM imidazole). The recombinant enzymes containing an N-terminal His6 tag were eluted from the resin with 1 ml of elution buffer (50 mM sodium phosphate buffer, pH. 8.0, 300 mM NaCl, 500 mM imidazole) and desalted as described above. The purity of the purified recombinant enzymes was estimated by running on SDS-PAGE gel (FIG. 12) and analyzing with ImageJ (http://imagej.nih.gov/ij/). The recombinant enzyme of Glyma11g35760 was tested for Tyr sensitivity (FIG. 5A) using crude E. coli extract as its purification was not successful owing to its low expression (FIG. 3B and FIG. 3C) and insolubility.
(§3) ADH and PDH reactions using GmPDH1, Glyma11g35760, MtPDH1 and AtADH2 (FIG. 5A) contained 200 mM HEPES (pH 7.3), 50 mM KCl, 10% ethylene glycol, 1 mN4 NADP^+ and 1 mM substrate (L-arogenate or prephenate, respectively). Reactions were started by addition of enzyme and incubated at 37° C. for 15 min in the presence of increasing concentrations of effectors: L-Tyr FIG. 5A), L-Phe, L-Trp and HPP. Tyr was dissolved in basic conditions (0.025 N NaOH) to dissolve at high concentrations (up to 10 mM), though 200 mM HEPES maintained the final reaction pH at 7.6. Tyr sensitivity of purified recombinant GmPDH1 and MtPDH1 was also tested at prephenate concentrations ranging from […] to 59 μM, below the K values for GmPDH1 and MtPDH1, while keeping the L-Tyr concentration constant at 1 mM (FIG. 13). Enzyme activity was measured for the production of reduced cofactor (NADPH) at 340 nm using a spectrophotometer, except for crude soybean extracts, which were analyzed by HPLC after 45 min incubation and reduction to HPLA as described above.

The nature of test [4]: Qualitative HPLC detection of PDH activity in E. coli cell lysates expressing candidate enzymes. The settings on record: 2 mM prephenate, saturating conditions. As for the experimental part: ADH and PDH reactions contained 25 mM HEPES (pH 7.5), 50 mM KCl, 10% ethylene glycol, 1 mM NADP (or NAD^+), 2 mM substrate (L-arogenate or prephenate, respectively) unless otherwise noted. Arogenate was prepared by enzymatic conversion from prephenate (Sigma-Aldrich), as previously reported. Reactions were started by addition of enzyme from various sources and incubated at 37′ C. for a given amount of time, as noted below,
HPLC-based methods were used to directly detect the final products of ADH and PDH assays, Tyr and HPP, respectively from crude E. coli extracts (FIG. 3B and FIG. 3C) and crude plant extracts (FIG. 2A and FIG. 6). For HPLC detection of PDH activity, reactions were incubated for 45 min and terminated by addition of NaBH4, which converts the reaction product HPP (which produced multiple peaks; FIG. 6) into hydroxyphenyllactic acid (HPLA), followed by neutralization with 100 μl of 6 N HCl. The conversion and recovery rate was 80±1.5% s.d. which was taken into account for the calculation of specific activity from crude plant extracts (FIG. 2C). HPLA was detected as a single peak (FIG. 2A) after being separated by HPLC (Agilent 1260, Santa Clara, Calif.) equipped with a ZORBA X SB-C18 column (Agitent) using a 6-min isocratic elution at 25% methanol in 0.1% phosphoric acid, followed by a 20-min linear gradient of 25-60% methanol at a flow rate of 1.0 ml/min. HPLA was detected using UV absorbance at 270 nm and quantified by a calibration curve generated from the authentic HPLA standard (Sigma-Aldrich). For HPLC-based detection of ADH activity (FIG. 3B), reactions were incubated for 45 min and terminated by addition of methanol to a final concentration of 66% (v/v). The product, Tyr, was derivatized with OPA and separated on a ZORBAX eclipse-XDB C18 column (Agilent) using a 30-min linear gradient of 20-45% methanol in 0.1% animonium acetate at a flow rate of 0.8 ml/min. Tyr was detected by UV absorption at 336 nm and quantified on the basis of a calibration curve generated by the authentic Tyr standard (Acros, Geel, Belgium).
The crude enzyme extracts were first subjected to PDH and ADH assays using saturating conditions to screen for any detectable PDH and/or ADH activity (FIG. 3B and FIG. 3C). ADH activity was detected from all five candidates. In contrast, PDH activity was detected only in Glyma11a35760 and Glyma18g02650 as well as their closest homolog from Medicago (Mt3g071980) but not in Glyma5g07870, Glyma17g13150 and Glyma14g05990 (FIG. 3C).

Test [5] is described as follows: Inhibition analysis: L-Tyr sensitivity of ADH activity of recombinant AtADH2. The note with it: for ADH activity: 1 mM L-arogenate, 1 mM NADP+, 37° C., 15 min. As for the experimental part: as §3

On to `N[C@@H](Cc1ccc(O)cc1)C(=O)O` [L-Tyr, Tyrosine], for which the “CM activity in the plastid fraction” value in test [1] is recorded as “completely inhibited”. Further, the “CM activity in the cytosol” value in test [2] is listed as “only slightly decreased”.
In the case of `N[C@@H](Cc1c[nH]c2ccccc12)C(=O)O` [L-Trp, tryptophan], the “induction of CM activity in the plastid fraction” value in test [1] is listed as “approximately threefold”. Moreover, the “CM activity in the cytosol” value in test [2] was “increased”.

B1: Glyma11g35760: soybean PDH enzyme, paralog of Glyma18g02650, tested as crude E. coli extract (protein)
chain: MTTMSTSSSSQSLKIGIVGFGNFGQFLAKTMIKQGHTLTATSRSDYSQLCLQMGIHFFRDVSAFLAADIDVIVLCTSILSLSEVVGSMPLTSLKRPTLFVDVLSVKEHPRELLLRELPEDSDILCTHPMFGPQTANNGWTDHTFMYDKVRIRDEATCSSFIQIFATEGCKMVQMSCEEHDRAAAKSQFITHTIGRTLGEMDIQSTPIDTKGFETLVKLKETMMRNSFDLYSGLFVYNRFARQELENLEHAFYKVKETLMIQRSNGEQGHKRTES
modifications: Glycine max
notes: soybean PDH enzyme, paralog of Glyma18g02650, tested as crude E. coli extract
Consider B1, for which the “inhibition of PDH activity by L-Tyr” value in test [3] (E. coli extract expressing the enzyme) is reported as “not inhibited”. Besides, the PDH activity came to 1219 ± 76 pKat/mg in test [3] (L-Tyr 0 mM); 1211 ± 39 pKat/mg in test [3] (L-Tyr 0.01 mM); 1173 ± 16 pKat/mg in test [3] (L-Tyr 0.1 mM); 1250 ± 63 pKat/mg in test [3] (L-Tyr 1.0 mM); 1109 ± 79 pKat/mg in test [3] (L-Tyr 10 mM). Further, in test [4], the “PDH activity (qualitative detection)” value is given as “detected”.

B2: Glyma14g05990: soybean enzyme having predominately arogenate dehydrogenase activity (protein)
chain: MSTWSLKIGVVGFGSFGQFLAKTMIKQGHTLRATSRTDYSLLCLPMGIQFFRDVAAFLEADNDVILVCTSILSLSEVLSSMPLTCLKRSTLFVDVLSVKEHPRNLLIKVLPEESDILCTHPMFGPDSGKDGWQDLTFVYDKVRIRDEAICSSFLHIFASEGCRMLQMSCEEHDKIAAKSQFITHTIGRTLAEMDIKSTPIDTKGFHSLVQLKDTTIRDSFDLYSGLFLHNRFAVQELENLEHALHKVKEMLVQRKSEELGLEKTEC
modifications: Glycine max
With B2, in test [4], the “PDH activity (qualitative detection)” value was “not”.

B3: AtADH2: Arabidopsis thaliana arogenate dehydrogenase 2, recombinant enzyme, inhibited by L-Tyr (protein, UniProt Q9LMR3 37-358, looked up)
Arogenate dehydrogenase 2, …: IDAAQIFDYETQLKSEYRKSSALKIAVLGFGNFGQFLSKTLIRHGHDLITHSRSDYSDAANSIGARFFDNPHDLCEQHPDVVLLCTSILSTESVLRSFPFQRLRRSTLFVDVLSVKEFPKALFIKYLPKEFDILCTHPMFGPESGKHSWSGLPFVYDKVRIGDAASRQERCEKFLRIFENEGCKMVEMSCEKHDYYAAGSQFVTHTMGRVLEKYGVESSPINTKGYETLLDLVENTSSDSFELFYGLFMYNPNALEQLERLDMAFESVKKELFGRLHQQYRKQMFGGEVQSPKKTEQKLLNDGGVVPMNDISSSSSSSSSSS
Regarding B3, the “reduction of ADH activity” value in test [5] (100 μM L-Tyr) is recorded as approximately 75%. In addition, the figures for the ADH activity in test [5] (L-Tyr 0 mM), in test [5] (L-Tyr 0.01 mM) and in test [5] (L-Tyr 0.1 mM) were 923 ± 34 uKat/mg, 766 ± 35 uKat/mg and 251 ± 45 uKat/mg, respectively. The “ADH activity in the presence of L-Tyr” value in test [5] (≧1 mM L-Tyr) is given as “abolished”.
